Source: the Human Domainome abundance scans (Beltran et al. 2025)
± gives the uncertainty stated by the source.

B1: Death-inducer obliterator 1, residues 263 to 321; numbered along this chain, Q9BTC0 (parent)
chain: GYDPNALYCICRQPHNNRFMICCDRCEEWFHGDCVGISEARGRLLERNGEDYICPNCTI

Variants of: B1
Assay: abundance fitness (aPCA) (normalised: wild type 0, dead -1); higher = more abundant; growth selection in yeast, the domain comes from the species named
Conditions: Homo sapiens

Variant | abundance fitness
CYDPNALYCICRQPHNNRFMICCDRCEEWFHGDCVGISEARGRLLERNGEDYICPNCTI | 0.138 ± 0.088
DYDPNALYCICRQPHNNRFMICCDRCEEWFHGDCVGISEARGRLLERNGEDYICPNCTI | 0.181 ± 0.056
FYDPNALYCICRQPHNNRFMICCDRCEEWFHGDCVGISEARGRLLERNGEDYICPNCTI | 0.058 ± 0.17
IYDPNALYCICRQPHNNRFMICCDRCEEWFHGDCVGISEARGRLLERNGEDYICPNCTI | 0.16 ± 0.14
LYDPNALYCICRQPHNNRFMICCDRCEEWFHGDCVGISEARGRLLERNGEDYICPNCTI | 0.266 ± 0.12
MYDPNALYCICRQPHNNRFMICCDRCEEWFHGDCVGISEARGRLLERNGEDYICPNCTI | -0.144 ± 0.34
NYDPNALYCICRQPHNNRFMICCDRCEEWFHGDCVGISEARGRLLERNGEDYICPNCTI | 0.109 ± 0.11
PYDPNALYCICRQPHNNRFMICCDRCEEWFHGDCVGISEARGRLLERNGEDYICPNCTI | -0.104 ± 0.4
QYDPNALYCICRQPHNNRFMICCDRCEEWFHGDCVGISEARGRLLERNGEDYICPNCTI | -0.167 ± 0.21
RYDPNALYCICRQPHNNRFMICCDRCEEWFHGDCVGISEARGRLLERNGEDYICPNCTI | -0.134 ± 0.14
SYDPNALYCICRQPHNNRFMICCDRCEEWFHGDCVGISEARGRLLERNGEDYICPNCTI | 0.199 ± 0.065
VYDPNALYCICRQPHNNRFMICCDRCEEWFHGDCVGISEARGRLLERNGEDYICPNCTI | 0.323 ± 0.098
WYDPNALYCICRQPHNNRFMICCDRCEEWFHGDCVGISEARGRLLERNGEDYICPNCTI | -0.336 ± 0.21
YYDPNALYCICRQPHNNRFMICCDRCEEWFHGDCVGISEARGRLLERNGEDYICPNCTI | 0.132 ± 0.13
GADPNALYCICRQPHNNRFMICCDRCEEWFHGDCVGISEARGRLLERNGEDYICPNCTI | -0.03 ± 0.091
GCDPNALYCICRQPHNNRFMICCDRCEEWFHGDCVGISEARGRLLERNGEDYICPNCTI | 0.039 ± 0.098
GDDPNALYCICRQPHNNRFMICCDRCEEWFHGDCVGISEARGRLLERNGEDYICPNCTI | -0.03 ± 0.16
GEDPNALYCICRQPHNNRFMICCDRCEEWFHGDCVGISEARGRLLERNGEDYICPNCTI | 0.347 ± 0.12
GFDPNALYCICRQPHNNRFMICCDRCEEWFHGDCVGISEARGRLLERNGEDYICPNCTI | 0.351 ± 0.1
GGDPNALYCICRQPHNNRFMICCDRCEEWFHGDCVGISEARGRLLERNGEDYICPNCTI | 0.165 ± 0.085
GHDPNALYCICRQPHNNRFMICCDRCEEWFHGDCVGISEARGRLLERNGEDYICPNCTI | 0.156 ± 0.09
GIDPNALYCICRQPHNNRFMICCDRCEEWFHGDCVGISEARGRLLERNGEDYICPNCTI | 0.298 ± 0.16
GKDPNALYCICRQPHNNRFMICCDRCEEWFHGDCVGISEARGRLLERNGEDYICPNCTI | 0.191 ± 0.12

Variant | abundance fitness
GLDPNALYCICRQPHNNRFMICCDRCEEWFHGDCVGISEARGRLLERNGEDYICPNCTI | 0.342 ± 0.06
GMDPNALYCICRQPHNNRFMICCDRCEEWFHGDCVGISEARGRLLERNGEDYICPNCTI | 0.161 ± 0.1
GNDPNALYCICRQPHNNRFMICCDRCEEWFHGDCVGISEARGRLLERNGEDYICPNCTI | 0.269 ± 0.15
GPDPNALYCICRQPHNNRFMICCDRCEEWFHGDCVGISEARGRLLERNGEDYICPNCTI | 0.102 ± 0.1
GQDPNALYCICRQPHNNRFMICCDRCEEWFHGDCVGISEARGRLLERNGEDYICPNCTI | 0.161 ± 0.18
GRDPNALYCICRQPHNNRFMICCDRCEEWFHGDCVGISEARGRLLERNGEDYICPNCTI | 0.211 ± 0.07
GSDPNALYCICRQPHNNRFMICCDRCEEWFHGDCVGISEARGRLLERNGEDYICPNCTI | 0.116 ± 0.083
GVDPNALYCICRQPHNNRFMICCDRCEEWFHGDCVGISEARGRLLERNGEDYICPNCTI | -0.112 ± 0.19
GYAPNALYCICRQPHNNRFMICCDRCEEWFHGDCVGISEARGRLLERNGEDYICPNCTI | -0.735 ± 0.14
GYCPNALYCICRQPHNNRFMICCDRCEEWFHGDCVGISEARGRLLERNGEDYICPNCTI | -0.048 ± 0.12
GYEPNALYCICRQPHNNRFMICCDRCEEWFHGDCVGISEARGRLLERNGEDYICPNCTI | 0.043 ± 0.072
GYFPNALYCICRQPHNNRFMICCDRCEEWFHGDCVGISEARGRLLERNGEDYICPNCTI | 0.025 ± 0.097
GYGPNALYCICRQPHNNRFMICCDRCEEWFHGDCVGISEARGRLLERNGEDYICPNCTI | -0.243 ± 0.096
GYHPNALYCICRQPHNNRFMICCDRCEEWFHGDCVGISEARGRLLERNGEDYICPNCTI | 0.111 ± 0.12
GYIPNALYCICRQPHNNRFMICCDRCEEWFHGDCVGISEARGRLLERNGEDYICPNCTI | -0.007 ± 0.099
GYKPNALYCICRQPHNNRFMICCDRCEEWFHGDCVGISEARGRLLERNGEDYICPNCTI | 0.123 ± 0.084
GYLPNALYCICRQPHNNRFMICCDRCEEWFHGDCVGISEARGRLLERNGEDYICPNCTI | -0.024 ± 0.048
GYMPNALYCICRQPHNNRFMICCDRCEEWFHGDCVGISEARGRLLERNGEDYICPNCTI | 0.199 ± 0.066
GYNPNALYCICRQPHNNRFMICCDRCEEWFHGDCVGISEARGRLLERNGEDYICPNCTI | 0.155 ± 0.081
GYPPNALYCICRQPHNNRFMICCDRCEEWFHGDCVGISEARGRLLERNGEDYICPNCTI | 0.135 ± 0.11
GYQPNALYCICRQPHNNRFMICCDRCEEWFHGDCVGISEARGRLLERNGEDYICPNCTI | -0.004 ± 0.18
GYRPNALYCICRQPHNNRFMICCDRCEEWFHGDCVGISEARGRLLERNGEDYICPNCTI | -0.049 ± 0.075
